Measurements from article PMC6029366.

Molecular target: M1R-TEV-tTA fusion protein

- TANGO β-arrestin recruitment assay, luciferase reporter (RLU), HTLA cells treated with the muscarinic agonist carbachol: 7.4 fold
Substance: β-arrestin-TEV protease (from UniProt P32121 1-409) (natural protein)
